Reference: US20250146022A1, “STABILISING THE HUMAN SPINDLE BY KIFC1/HSET” (MAX-PLANCK-GESELLSCHAFT ZUR FOERDERUNG DER WISSENSCHAFTEN …, priority 2021, published 2025)

B1: wild-type HSET: Wild-type HSET re-expressed from microinjected mClover3-HSET mRNA in KIFC1/HSET-depleted aMTOC-free mouse oocytes (protein)
chain: MDPQRSPLLEVKGNIELKRPLIKAPSQLPLSGSRLKRRPDQMEDGLEPEKKRTRGLGATTKITTSHPRVPSLTTVPQTQGQTTAQKVSKKTGPRCSTAIATGLKNQKPVPAVPVQKSGTSGVPPMAGGKKPSKRPAWDLKGQLCDLNAELKRCRERTQTLDQENQQLQDQLRDAQQQVKALGTERTTLEGHLAKVQAQAEQGQQELKNLRACVLELEERLSTQEGLVQELQKKQVELQEERRGLMSQLEEKERRLQTSEAALSSSQAEVASLRQETVAQAALLTEREERLHGLEMERRRLHNQLQELKGNIRVFCRVRPVLPGEPTPPPGLLLFPSGPGGPSDPPTRLSLSRSDERRGTLSGAPAPPTRHDFSFDRVFPPGSGQDEVFEEIAMLVQSALDGYPVCIFAYGQTGSGKTFTMEGGPGGDPQLEGLIPRALRHLFSVAQELSGQGWTYSFVASYVEIYNETVRDLLATGTRKGQGGECEIRRAGPGSEELTVTNARYVPVSCEKEVDALLHLARQNRAVARTAQNERSSRSHSVFQLQISGEHSSRGLQCGAPLSLVDLAGSERLDPGLALGPGERERLRETQAINSSLSTLGLVIMALSNKESHVPYRNSKLTYLLQNSLGGSAKMLMFVNISPLEENVSESLNSLRFASKVNQCVIGTAQANRK
modifications: left off: large carriers
notes: Wild-type HSET re-expressed from microinjected mClover3-HSET mRNA in KIFC1/HSET-depleted aMTOC-free mouse oocytes

Tests used:
mouse oocytes = experiment: AURA inhibition in mouse oocytes, NUMA enrichment at spindle poles; type: cell-based; settings: constitutive treatment, 500 nM; data not shown
Description: aMTOCs enrich several regulatory kinases at the spindle poles in mouse oocytes (26). The inventors considered that AURA, which is an essential kinase for aMTOC functions (43, 44) and can phosphorylate NUMA (45), negatively regulates NUMA enrichment at microtubule minus-ends in mouse oocytes. […] To confirm that NUMA enrichment is regulated by AURA-dependent phosphorylation, the inventors depleted endogenous NUMA by follicle RNAi (39) and re-expressed NUMA with mutations at the AURA phosphorylation site S1969. […] Together, the inventors infer that AURA phosphorylation negatively regulates NUMA enrichment at microtubule minus-ends in mouse oocytes. All drugs were prepared in DMSO (Sigma-Aldrich) as 1000× stocks. […] Specific parameters used were: 0.1 (for microtubule packing index) or 1.0 (for SD of fluorescence intensity within spindle isosurface) μm for smoothing size, no background subtraction, 500-750 and 1000-1750 μm^3 for minimum and maximum expected total volume of surface object, respectively. SD of fluorescence intensity, volume and volume of the object-oriented minimum bounding box for the spindle isosurface were exported into Excel. Microtubule packing index was calculated by dividing the volume of spindle isosurface by the volume of the object-oriented minimum bounding box. […] Mean fluorescence intensity and volume of isosurfaces were exported into Excel. […]

[1] = system: KIFC1/HSET-depleted aMTOC-free mouse oocytes; experiment: Rescue of spindle polarity in KIFC1/HSET-depleted aMTOC-free mouse oocytes (human oocyte mimics); type: cell-based
Description: This domain, together with the conserved, microtubule-binding motor domain, allows KIFC1/HSET to organize microtubules via crosslinking and/or sliding (86). To investigate the requirement of different domains in KIFC1/HSET, the inventors expressed a series of truncation mutants in aMTOC-free mouse oocytes (FIG. 7K). […] To examine whether the motor activity is dispensable for the function of KIFC1/HSET in aMTOC-free mouse oocytes, the inventors depleted endogenous KIFC1/HSET by follicle RNAi and restored expression with wild-type HSET or with HSET(N593K), which crosslinks microtubules but cannot slide (87). […] Together, the inventors infer that the appropriate level of KIFC1/HSET's crosslinking and sliding activities are required for proper bipolar spindle assembly in the absence of aMTOCs.
Mouse follicles were microinjected with 3.5 pl of siRNAs at a needle concentration of 2 μM as previously described (11). For rescue experiments, in vitro grown oocytes were microinjected with 3.5 pl of mRNAs. mClover3-HSET mRNA was microinjected at a needle concentration of 275 ng/μl, mClover3-HSET(N593K) mRNA at 275 ng/μl, mClover3-NUMA(S1955D) mRNA at 400 ng/μl, mClover3-NUMA(S1955A) mRNA at 400 ng/μl, mClover3-NUMA(SpM-4A) mRNA at 400 ng/μl, mClover3-NUMA(ΔMTBD1) mRNA at 400 ng/μl and mClover3-NUMA(ΔMTBD2) mRNA at 400 ng/μl. Oocytes were allowed to express the mRNAs for 3-4 h before release.
To obtain mouse MI spindles, oocytes were incubated at 37° C. for around 7 h after released into dbcAMP-free medium. To obtain porcine and bovine MI spindles, oocytes were incubated at 39° C./5% CO2 for around 11 and 12 h, respectively, after released into RO-3306-free medium. To obtain human MI spindles, oocytes were incubated at 37° C. for around 14 and 15 h after NEBD. None of the oocytes used for immunofluorescence analyses was subjected to live imaging before fixation.
Time-lapse movies of live mouse, bovine and porcine oocytes, and fixed human and mouse spindles were analyzed in 3D using Imaris (Bitplane). To determine the stages of meiosis and to score for spindle instability, the timing of meiotic progression was quantified relative to the timing of NEBD. NEBD was defined as the time point when the sharp boundary between the nucleus and cytoplasm disappeared in the differential interference contrast image (for mouse oocytes) or when the nucleus started collapsing in the H2B channel (for bovine and porcine oocytes). Spindle poles were defined as regions of MAP4 or MAP4-MTBD or α-tubulin intensity that prominently protruded from the main microtubule mass. In FIG. 1D, oocytes with bipolar spindle, in which ends of all microtubules converged at the poles, were scored as having focused poles. […] For mouse oocytes, unfocused poles were further classified into mildly unfocused poles (with partially separated microtubule ends) and severely unfocused poles (with fully separated microtubule ends). In FIG. 4D, bovine and porcine oocytes, in which the spindle maintained a barrel-shaped bipolar morphology and a detectable spindle axis, were scored as having stable spindle poles. Oocytes, in which the spindle lost their initial bipolarity and underwent dynamic remodeling of the pole(s) were scored as having unstable spindle poles. […] Oocytes, in which the spindle had more than two poles, were scored as having multipolar spindle. In FIG. 1H, mouse oocytes, in which the spindle had two well-defined poles, were scored as having bipolar spindle. Mouse oocytes, in which the spindle had two poorly defined poles, were scored as having apolar/round spindle. Mouse oocytes, in which the spindle had more than two poles, were scored as having multipolar spindle. […] Mouse oocytes, in which the spindle lost its barrel shape but contains several weakly associated microtubule bundles, were scored as having disorganized spindle.

Molecule | NUMA enrichment at the spindle poles (mouse oocytes) | HSET to α-tubulin intensity ratio, more HSET loaded onto spindles with poorly focused poles ([1]; bipolar MI spindles rescued with wild-type HSET, FIG. 3I) [fold] | spindle polarity (manual scoring) ([1]; endogenous KIFC1/HSET depleted by follicle RNAi, expression restored from mRNA, MI oocytes, FIGS. 3, G and H) | oocytes with a bipolar spindle but poorly focused poles that lacked NUMA ([1]; oocytes rescued with wild-type HSET, FIG. 3G)
COc1cc(Nc2ncc3c(n2)-c2ccc(Cl)cc2C(c2c(F)cccc2OC)=NC3)ccc1C(=O)O [MLN8237] | increased NUMA enrichment at the spindle poles |  |  | 
B1 |  | ~2 | assembled a bipolar spindle | around 25%
